Results on 3 molecules are retold here after PMC4356368, “Four crystal structures of human LLT1, a ligand of human NKR-P1, in varied glycosylation and oligomerization states” (Acta Crystallographica Section D: Biological Crystallography, 2015).

The target of data set [1] is LLT1 produced in the HEK293T cell line with wild-type complex N-glycosylation (human). The data set is described as follows: AUC; sedimentation velocity, 50 000 rev/min, 20°C, absorbance 280 nm, 10 mM HEPES pH 7.5, 150 mM NaCl, 10 mM NaN3; several concentrations (HEK293T protein at 0.2 mg/ml and tenfold diluted; GnTI- protein at five concentrations); continuous size-distribution and monomer-dimer self-association models; dimer to monomers.

Data set [2] concerns the molecule itself. As to the kind of experiment: crystal structure; LLT1_D1 and LLT1_D2: deglycosylated protein, 30%(w/v) PEG 6000, 0.1 M HEPES pH 7.0, 294 K; one dimer in the asymmetric unit, P212121.
Data set [3] concerns the molecule itself. As to the kind of experiment: AUC; sedimentation velocity, 50 000 rev/min, 20°C, absorbance 280 nm, 10 mM HEPES pH 7.5, 150 mM NaCl, 10 mM NaN3; several concentrations (HEK293T protein at 0.2 mg/ml and tenfold diluted; GnTI- protein at five concentrations); continuous size-distribution and monomer-dimer self-association models; dimer to monomers.
Data set [4] deals with the molecule itself. As to the kind of experiment: dynamic light scattering; 1 mg/ml in 10 mM HEPES, 150 mM NaCl, 10 mM NaN3 pH 7.5; 291, 298 and 303 K.
Data set [5] concerns the molecule itself. As to the kind of experiment: crystal structure; LLT1_glyco: GlcNAc2Man5-glycosylated protein, 40%(v/v) PEG 300, 0.1 M citrate-phosphate pH 4.2, 288 K; P6322, hexamer of three dimers by crystal symmetry.

One may read the stoichiometry N as the number of molecules, sites or subunits per partner or assembly. On to “LLT1 produced in the HEK293T cell line with wild-type complex N-glycosylation (domain or fragment)”, for which the stoichiometry N in data set [1] stood at 2.

B1: Human LLT1 C-type lectin-like extracellular domain (Gln72-Val191, His176Cys), deglycosylated after the first N-acetylglucosamine unit (domain or fragment)
chain: ITGQAACPESWIGFQRKCFYFSDDTKNWTSSQRFCDSQDADLAQVESFQELNFLLRYKGPSDHWIGLSREQGQPWKWINGTEWTRQFPILGAGECAYLNDKGASSARCYTERKWICSKSDIHV
modifications: single N-linked GlcNAc left at Asn95 and Asn147 after Endo F1
notes: remnant of the secretion leader at the beginning of the chain; LLT1 (lectin-like transcript 1), human, UniProt Q9UHP7 isoform 1, CTL extracellular domain Gln72-Val191 with His176 to Cys176; Same polypeptide as m1; it differs only in the glycans; L-arginine-HCl (0.4 M) was added after deglycosylation; also called LLT1_mono; LLT1_D1
B1: the “stoichiometry N” value in data set [2] was determined as 2.

B2: Human LLT1 C-type lectin-like extracellular domain (Gln72-Val191, His176Cys) with homogeneous GlcNAc2Man5 N-glycosylation (domain or fragment)
chain: ITGQAACPESWIGFQRKCFYFSDDTKNWTSSQRFCDSQDADLAQVESFQELNFLLRYKGPSDHWIGLSREQGQPWKWINGTEWTRQFPILGAGECAYLNDKGASSARCYTERKWICSKSDIHV
modifications: N-linked GlcNAc2Man5 glycans at Asn95 and Asn147
notes: remnant of the secretion leader at the beginning of the chain; LLT1 (lectin-like transcript 1), human, UniProt Q9UHP7 isoform 1, CTL extracellular domain Gln72-Val191 with His176 to Cys176; the construct is described in Bláha et al. (2015); also called LLT1_glyco; glycosylated LLT1; source: HEK293S GnTI- cells, transiently transfected, secreted, purified (Talon IMAC, Superdex 200 SEC)
The Kd is the concentration at which binding is half-saturated. Read a high Kd as weaker binding. In turn, B2 yielded a Kd in data set [3] of about 20 µM. Also, the “stoichiometry N” value in data set [4] was determined as 2; in data set [5], 6.
